A word on the Tm: it is the temperature at the midpoint of the melting transition.

The data set in a line: melting temperature; melt of duplexes. The conditions noted are these: sodium 0.0675 M; strand 1 µM.
Consider “CGACGTGCTCCATGTGCTG+CAGCACATGTGGCACGTCG ((((((((..(((((((((+)))))))))..))))))))”, for which the midpoint of thermal melting (Tm) amounted to 53.8 °C. For “CGACGTGCCGGATGTGCTG+CAGCACATCAGGCACGTCG (((((((((.(((((((((+))))))))).)))))))))”, the midpoint of thermal melting (Tm) worked out at 62.6 °C. “CGACGTGCGACATGTGCTG+CAGCACATAGAGCACGTCG ((((((((...((((((((+))))))))...))))))))”: the Tm worked out at 56.3 °C.

On to “CGACGTGCGATATGTGCTG+CAGCACATCATGCACGTCG ((((((((...((((((((+))))))))...))))))))”, for which the Tm amounted to 50.1 °C.

“CGACGTGCAGAATGTGCTG+CAGCACATAAGGCACGTCG ((((((((...((((((((+))))))))...))))))))”: the Tm is 51 °C. As for “CGACGTGCTCCATGTGCTG+CAGCACATAACGCACGTCG ((((((((...((((((((+))))))))...))))))))”, the midpoint of thermal melting (Tm) is 47 °C. With “CGACGTGCTTAATGTGCTG+CAGCACATCGTGCACGTCG ((((((((...((((((((+))))))))...))))))))”, the Tm came out at 43.3 °C.

For the substance “CGACGTGCCGAATGTGCTG+CAGCACATCTTGCACGTCG ((((((((...((((((((+))))))))...))))))))”, the Tm was 48.8 °C. As to “CGACGTGCGGAATGTGCTG+CAGCACATGGGGCACGTCG ((((((((...((((((((+))))))))...))))))))”, the midpoint of thermal melting (Tm) stood at 52.9 °C. Regarding “CGACGTGCGGAATGTGCTG+CAGCACATTACGCACGTCG (((((((((.(((((((((+))))))))).)))))))))”, the Tm was found to be 62 °C. As for “CGACGTGCCAGATGTGCTG+CAGCACATCCGGCACGTCG (((((((((.(((((((((+))))))))).)))))))))”, the figure is 59.2 °C; as for “CGACGTGCGCTATGTGCTG+CAGCACATTGTGCACGTCG ((((((((.(.((((((((+)))))))).).))))))))”, 51.9 °C; as for “CGACGTGCCTGATGTGCTG+CAGCACATGGAGCACGTCG ((((((((...((((((((+))))))))...))))))))”, 51.6 °C. Regarding “CGACGTGCGTCATGTGCTG+CAGCACATGATGCACGTCG ((((((((.((((((((((+)))))))))).))))))))”, the Tm was found to be 61.1 °C. As for “CGACGTGCTACATGTGCTG+CAGCACATGCAGCACGTCG (((((((((.(((((((((+))))))))).)))))))))”, the Tm worked out at 58.1 °C.

In the case of “CGACGTGCGGCATGTGCTG+CAGCACATGCCGCACGTCG (((((((((((((((((((+)))))))))))))))))))”, the Tm is 68.9 °C.

Regarding “CGACGTGCCAAATGTGCTG+CAGCACATCTAGCACGTCG ((((((((.(.((((((((+)))))))).).))))))))”, the Tm worked out at 49.3 °C. “CGACGTGCGGCATGTGCTG+CAGCACATCCCGCACGTCG ((((((((((.((((((((+)))))))).))))))))))”: the Tm was found to be 58.3 °C. In the case of “CGACGTGCTCAATGTGCTG+CAGCACATAGGGCACGTCG ((((((((.(.((((((((+)))))))).).))))))))”, the Tm came to 52.8 °C. For “CGACGTGCCTAATGTGCTG+CAGCACATTCTGCACGTCG ((((((((..(((((((((+)))))))))..))))))))”, the melting temperature (Tm) was 51 °C. Turning to “CGACGTGCCCTATGTGCTG+CAGCACATTAAGCACGTCG ((((((((...((((((((+))))))))...))))))))”, the melting temperature (Tm) is 48.7 °C. Take “CGACGTGCTTTATGTGCTG+CAGCACATGGAGCACGTCG (((((((((..((((((((+))))))))..)))))))))”: the midpoint of thermal melting (Tm) worked out at 54.2 °C. With “CGACGTGCAGGATGTGCTG+CAGCACATGGGGCACGTCG ((((((((...((((((((+))))))))...))))))))”, the Tm was 50.4 °C. In the case of “CGACGTGCCGAATGTGCTG+CAGCACATTGAGCACGTCG ((((((((..(((((((((+)))))))))..))))))))”, the midpoint of thermal melting (Tm) stood at 53.3 °C. To “CGACGTGCCCTATGTGCTG+CAGCACATCCAGCACGTCG ((((((((...((((((((+))))))))...))))))))” belongs 47.7 °C; to “CGACGTGCAACATGTGCTG+CAGCACATCTTGCACGTCG ((((((((((.((((((((+)))))))).))))))))))”, 52.5 °C. As for “CGACGTGCTTCATGTGCTG+CAGCACATCCGGCACGTCG ((((((((...((((((((+))))))))...))))))))”, the figure is 47.8 °C; as for “CGACGTGCGTGATGTGCTG+CAGCACATTTAGCACGTCG ((((((((...((((((((+))))))))...))))))))”, 53.6 °C; as for “CGACGTGCCGAATGTGCTG+CAGCACATACCGCACGTCG ((((((((.(.((((((((+)))))))).).))))))))”, 49.5 °C.

On to “CGACGTGCAGGATGTGCTG+CAGCACATGCAGCACGTCG ((((((((.(.((((((((+)))))))).).))))))))”, for which the Tm was found to be 55 °C. For “CGACGTGCGATATGTGCTG+CAGCACATAGCGCACGTCG (((((((((.(((((((((+))))))))).)))))))))”, the midpoint of thermal melting (Tm) was 61.3 °C. Regarding “CGACGTGCAAGATGTGCTG+CAGCACATTGTGCACGTCG (((((((((..((((((((+))))))))..)))))))))”, the Tm was 50.6 °C. As for “CGACGTGCTATATGTGCTG+CAGCACATCCGGCACGTCG ((((((((...((((((((+))))))))...))))))))”, the figure is 49 °C; as for “CGACGTGCCCAATGTGCTG+CAGCACATACTGCACGTCG ((((((((...((((((((+))))))))...))))))))”, 47.5 °C. Regarding “CGACGTGCACCATGTGCTG+CAGCACATTTGGCACGTCG ((((((((...((((((((+))))))))...))))))))”, the melting temperature (Tm) is 44.6 °C.

For the substance “CGACGTGCTAAATGTGCTG+CAGCACATCAGGCACGTCG ((((((((...((((((((+))))))))...))))))))”, the Tm amounted to 50.9 °C. As for “CGACGTGCCTTATGTGCTG+CAGCACATGCCGCACGTCG ((((((((...((((((((+))))))))...))))))))”, the melting temperature (Tm) worked out at 46.9 °C. For the substance “CGACGTGCTCGATGTGCTG+CAGCACATGGCGCACGTCG ((((((((.(.((((((((+)))))))).).))))))))”, the Tm came to 50.8 °C. Turning to “CGACGTGCCCTATGTGCTG+CAGCACATCTTGCACGTCG ((((((((...((((((((+))))))))...))))))))”, the midpoint of thermal melting (Tm) worked out at 47.3 °C. Turning to “CGACGTGCGGAATGTGCTG+CAGCACATCAAGCACGTCG ((((((((...((((((((+))))))))...))))))))”, the melting temperature (Tm) came to 53.8 °C.

In the case of “CGACGTGCGTTATGTGCTG+CAGCACATAATGCACGTCG ((((((((.((((((((((+)))))))))).))))))))”, the Tm was 57.4 °C.

Consider “CGACGTGCTCGATGTGCTG+CAGCACATGTCGCACGTCG ((((((((...((((((((+))))))))...))))))))”, for which the Tm turned out to be 48.2 °C. For the substance “CGACGTGCTCCATGTGCTG+CAGCACATGATGCACGTCG ((((((((..(((((((((+)))))))))..))))))))”, the melting temperature (Tm) came out at 53.7 °C.

In the case of “CGACGTGCAACATGTGCTG+CAGCACATCATGCACGTCG (((((((((..((((((((+))))))))..)))))))))”, the midpoint of thermal melting (Tm) was found to be 49 °C. For “CGACGTGCCATATGTGCTG+CAGCACATACTGCACGTCG ((((((((..(((((((((+)))))))))..))))))))”, the midpoint of thermal melting (Tm) was determined as 49.3 °C. In the case of “CGACGTGCTCAATGTGCTG+CAGCACATGCCGCACGTCG ((((((((...((((((((+))))))))...))))))))”, the Tm came out at 49 °C.

Turning to “CGACGTGCTGCATGTGCTG+CAGCACATCGAGCACGTCG (((((((((..((((((((+))))))))..)))))))))”, the midpoint of thermal melting (Tm) is 52.5 °C. Consider “CGACGTGCTGCATGTGCTG+CAGCACATGTAGCACGTCG (((((((((.(((((((((+))))))))).)))))))))”, for which the Tm turned out to be 60.4 °C. As for “CGACGTGCGCTATGTGCTG+CAGCACATCCCGCACGTCG (((((((((..((((((((+))))))))..)))))))))”, the Tm is 52.1 °C. Turning to “CGACGTGCCAGATGTGCTG+CAGCACATATCGCACGTCG ((((((((.(.((((((((+)))))))).).))))))))”, the Tm was 49.1 °C. In the case of “CGACGTGCTATATGTGCTG+CAGCACATGCGGCACGTCG ((((((((...((((((((+))))))))...))))))))”, the melting temperature (Tm) stood at 49.4 °C. In the case of “CGACGTGCAACATGTGCTG+CAGCACATAAAGCACGTCG ((((((((...((((((((+))))))))...))))))))”, the Tm amounted to 48.9 °C.

On to “CGACGTGCCTGATGTGCTG+CAGCACATTTTGCACGTCG ((((((((...((((((((+))))))))...))))))))”, for which the midpoint of thermal melting (Tm) was 48.8 °C. For “CGACGTGCTTCATGTGCTG+CAGCACATGAAGCACGTCG (((((((((((((((((((+)))))))))))))))))))”, the midpoint of thermal melting (Tm) is 64.4 °C. As for “CGACGTGCCTGATGTGCTG+CAGCACATTACGCACGTCG ((((((((.(.((((((((+)))))))).).))))))))”, the melting temperature (Tm) worked out at 49 °C. Turning to “CGACGTGCACTATGTGCTG+CAGCACATGATGCACGTCG (((((((((..((((((((+))))))))..)))))))))”, the Tm is 48.8 °C. Turning to “CGACGTGCCGTATGTGCTG+CAGCACATGCGGCACGTCG ((((((((((.((((((((+)))))))).))))))))))”, the Tm came out at 62.4 °C. Regarding “CGACGTGCCCCATGTGCTG+CAGCACATGGGGCACGTCG (((((((((((((((((((+)))))))))))))))))))”, the Tm was found to be 67.7 °C. “CGACGTGCTACATGTGCTG+CAGCACATCGGGCACGTCG ((((((((...((((((((+))))))))...))))))))”: the Tm was found to be 49.5 °C. As for “CGACGTGCAAAATGTGCTG+CAGCACATACGGCACGTCG ((((((((...((((((((+))))))))...))))))))”, the midpoint of thermal melting (Tm) came to 48 °C. For “CGACGTGCTCCATGTGCTG+CAGCACATAGGGCACGTCG ((((((((.(.((((((((+)))))))).).))))))))”, the Tm worked out at 52.3 °C. Turning to “CGACGTGCCTCATGTGCTG+CAGCACATAAGGCACGTCG ((((((((((.((((((((+)))))))).))))))))))”, the melting temperature (Tm) turned out to be 56.2 °C. With “CGACGTGCGGCATGTGCTG+CAGCACATCAGGCACGTCG ((((((((...((((((((+))))))))...))))))))”, the midpoint of thermal melting (Tm) worked out at 51 °C. On to “CGACGTGCTGGATGTGCTG+CAGCACATTAAGCACGTCG (((((((((..((((((((+))))))))..)))))))))”, for which the Tm was determined as 54.8 °C. For the substance “CGACGTGCCCCATGTGCTG+CAGCACATATTGCACGTCG ((((((((...((((((((+))))))))...))))))))”, the midpoint of thermal melting (Tm) stood at 46.1 °C. Take “CGACGTGCGTGATGTGCTG+CAGCACATCATGCACGTCG ((((((((.((((((((((+)))))))))).))))))))”: the midpoint of thermal melting (Tm) was 60.2 °C.
